Reference: the RNAGym collection of RNA variant scans (doi:10.1073/pnas.2313332121)
This sample holds only a part of the variants without activity.

B1: TPR 5TU (parent)
chain: GGAUCUUCUCGAUCUAACAAAAAAGACAAAUCUGCCACAAAGCUUGAGAGCAUCUUCGGAUGCAGAGGCGGCAGCCUUCGGUGGCGCGAUAGCGCCAACGUUCUCAACUAUGACACGCAAAACGCGUGCUCCGUUGAAUGGAGUUUAUCAUG

Variants of: B1
Experiment: polymerase ribozyme fitness, log enrichment relative to wild type (log ratio); higher = more active; in vitro selection for triplet polymerase activity
Summary of the method: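 Streptavidin-bead capture of gel-excised extended constructs, followed by RT-PCR, closed a single triplicate in vitro selection round. That round began by annealing PCR-built, transcribed mutant libraries of each subunit of a heterodimeric triplet polymerase ribozyme with a biotinylated primer, the partner subunit and triplets, then incubating them frozen at −7 °C. After Illumina sequencing of inputs and outputs, genotypes needed ≥10 input reads and ≥1 read per output. Fitness is the base-2 logarithm of genotype enrichment over wild-type enrichment, using inverse-variance-weighted replicate averages.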

Row | Variant | polymerase ribozyme fitness (log ratio)
1 | C14U C32U U61C A91U | ≤ -4.2
2 | C14G G100U | ≤ -4.2
3 | C14U A41U G46A A52U C63G C93U C105G | ≤ -4.2
4 | C14A A20G C79A G94C G141A | ≤ -4.2
5 | C14G C85A | -3.74
6 | C14G A17C A22U U44A G83C C118A U134C | ≤ -4.2
7 | C14A A21C A64G C75U C76G C85U C105U A120U | ≤ -4.2
8 | U13C U55A C85A C125U | -1.98
9 | C14A A40U C87A G136C | ≤ -4.2
10 | C14G U15C C38U C114U | -2.11
11 | C14A A49C G59C G62A A91U G100A C114U A137G U146C | ≤ -4.2
12 | U13A C93U | -0.77
13 | C14G A30U C36A U55A A73C C85U A119G | ≤ -4.2
14 | C14G A52C C69U U77G G92A | ≤ -4.2
15 | C14A A29U C51A C96G A115C C118A G141A | ≤ -4.2
16 | U13G U15A C36A A40C U56A G58A A107U G124U C131A | ≤ -4.2
17 | U13G C18U C27U C95U | -3.43
18 | U13G G42A A49G U56A C57A G80A | ≤ -4.2
19 | A12U A24G A49C C57U A73G G86U | ≤ -4.2
20 | U13A A20G C63G A91U G136C | ≤ -4.2
21 | U13G A47U G50A C51U U55A G81C A137U C149A | ≤ -4.2
22 | C14G C54U C72U | -3.4
23 | C14A A41C C85A C132U U145A | ≤ -4.2
24 | C14A A17U A115G | -3.2

Row | Variant | polymerase ribozyme fitness (log ratio)
25 | C14A G58C C93U | -2.75
26 | C14A G48C U56A C96A | -3.68
27 | A12U U53A | -1.75
28 | C14U G58U | -0.884
29 | C14G G84A C85G A106G | ≤ -4.2
30 | U13C G62C C99A U148G | ≤ -4.2
31 | U13G A52G G59C C95A C118U | -2.5
32 | A12U G58C C76U U102G A138C | ≤ -4.2
33 | C14U A73G C75G C87A A98G U111G | ≤ -4.2
34 | C14G A22U A39U | ≤ -4.2
35 | C14G U15C C76A C85G | -3.78
36 | U13G C14G A30C G80A A137U | ≤ -4.2
37 | C14G G48U C76U U77G A91C C99G C105G A122G C123G C129G U135G | ≤ -4.2
38 | C14U A19U G84A | -0.945
39 | C14G U53A | -2.66
40 | C14G C36U C85U G136U A138G | ≤ -4.2
41 | U13G A23U A26C C36A C57A G86U C95U A121C | ≤ -4.2
42 | A12U G58A U144C U146A | -3.88
43 | U13A A24G C27U A39C G50A G84U | ≤ -4.2
44 | C14G C54U G68C C87U | ≤ -4.2
45 | C14G U56A A60C G88C C95U U139G G140A | ≤ -4.2
46 | C14G C75G U77A C87A A137U G143U | ≤ -4.2
47 | C14A A28G A122U U134G U144G | ≤ -4.2
48 | C14G G34A G128A G141C | -3.91

Row | Variant | polymerase ribozyme fitness (log ratio)
49 | U13A A37C C57A G126U | -1.66
50 | C14G U44G U53A C75A U90C C93U | ≤ -4.2
51 | C14U C51U U135C | -3.66
52 | C14U C36A A73G G83A G86A | ≤ -4.2
53 | C14G A26G U44A C99G C103U | ≤ -4.2
54 | U13C C18G C35G A40G C63A A91U C118U C132U A150U | ≤ -4.2
55 | C14G C54A C85G U127A | ≤ -4.2
56 | C14G U45A C79U G88A U104G A113U | -4.17
57 | C14G A17C A23C A40C G88A G94U C123G U134G G140A | ≤ -4.2
58 | A12U U13A A91G C93A U102A | ≤ -4.2
59 | C14U C96U | -0.908
60 | C14A C43A C51U C54G C93A U145C A150C | ≤ -4.2
61 | U13C G59U C93G A138G | ≤ -4.2
62 | U13G A40C A73G C85U | -2.84
63 | C14G G92C | -2.66
64 | C14G G92A | -4.15
65 | C14G C35A G74U G86A A120U | ≤ -4.2
66 | U13A C103A | -2.51
67 | A12U G84A G88C A119C G140A | ≤ -4.2
68 | A12U G48U C51A G58C U61G C114U | ≤ -4.2
69 | A12U A28G U55A C63U C96G G100A | ≤ -4.2
70 | C14G U61A C85U C93A C108U A115U | ≤ -4.2
71 | U13G A106C | -1.83
72 | U13C A22G U61A G83A | -3.83

Row | Variant | polymerase ribozyme fitness (log ratio)
73 | C14U A19C U45A G84A C96A U109C | ≤ -4.2
74 | C14U A22G | -3.07
75 | C14G C54G G71A C99A G100A | ≤ -4.2
76 | C14A A20U A26C G84A G141A | ≤ -4.2
77 | U13A C18U C51U G86A | -2.27
78 | C14A C32U C85U A98U U111G U139G U151A | -4.14
79 | C14U A19G U31C A39C G50A A66U G68U C93G | ≤ -4.2
80 | U13G C14G C18U A22C C57U G59A C75A C93A G143U U146A G152U | ≤ -4.2
81 | C14G A89U | -2.66
82 | C14G U53A G84C G92U C95A A107G A119U | ≤ -4.2
83 | U13G U56A A91G | -3.81
84 | U13G A19U A22C G46C G81C C95U G140C | ≤ -4.2
85 | U13G A60U G83C C108U | ≤ -4.2
86 | A12U G25U A52C U56A G67A A91G C103G | ≤ -4.2
87 | A12U A41C | -0.744
88 | C14G U45G G46A C54U C72A U139G A142U | ≤ -4.2
89 | C14A A26U U77G G84U A115C A147G U148G | ≤ -4.2
90 | A12U C14A C114G A119G | -3.37
91 | A12U C57U C85G A115C G133U U139C | ≤ -4.2
92 | A12U C36U | -2.21
93 | U13A A24U G34A G94C G126C | -3.18
94 | A12U C57U | -0.208
95 | C14U C18A U61C U139G | -4.16
96 | U13G C51U U56A G86U A115U | ≤ -4.2

Row | Variant | polymerase ribozyme fitness (log ratio)
97 | C14A A49C C69A | ≤ -4.2
98 | C14A A17C U31A C57U C96G | -3.28
99 | U13G G83C C125G G133A U145G | ≤ -4.2
100 | A12U A39U U55A G67U G86U C103U | ≤ -4.2
101 | C14A G59C C85A C99U G141U U146G | ≤ -4.2
102 | U13C C43A A73C G92U | ≤ -4.2
103 | C14G G50U C87U C96A | -4.12
104 | A12U A120C | -0.776
105 | C14G U139C | ≤ -4.2
106 | C14U A16U G81A A147U | -1.35
107 | C14A U55G C63G C93U C118U | ≤ -4.2
108 | C14A A26G G67A A73U G86C A121U C123G A138C U146A | ≤ -4.2
109 | C14U C123G | -1.9
110 | C14U A30G G81A C85G A97G G133A | ≤ -4.2
111 | U13G C32G A41C G141U | ≤ -4.2
112 | C14G A23U G46U A66G G70A A91G C116G C131G | ≤ -4.2
113 | C14U A89U C93U | -3.88
114 | C14G A16C C51U G94U C125U | -3.93
115 | C14G A60G | -2.34
116 | C14G C57G C87G | ≤ -4.2
117 | U13G A49U C57U C87G C118U U139C U151A | ≤ -4.2
118 | C14G A30C C35A G48A C87G U102A | ≤ -4.2
119 | C14A U53A C87G | ≤ -4.2
120 | C14A C54G G62A G86U U101G G141U | ≤ -4.2

Row | Variant | polymerase ribozyme fitness (log ratio)
121 | A12U G46U G71U A142G | ≤ -4.2
122 | U13G A28U A37C A41G C99U C129A U134C A150C | ≤ -4.2
123 | A12U U55A | -0.315
124 | C14G U53A G94A G124U | -3.37
125 | U13G U44A G68C G88A C95A U144A | ≤ -4.2
126 | C14A C105U | -0.869
127 | C14U G25U U31G C43A A47C G62A A91G G94C U104C A138U G140C U145G | ≤ -4.2
128 | U13G G84U U135A G136A | -2.14
129 | C14U A37C | -1.79
130 | C14A A39U C85G G140A | ≤ -4.2
131 | C14A C18G A41C G42A G59C G68A C95U | ≤ -4.2
132 | U13A A41G C85A A106U | -4.16
133 | U13A C85U | -1.16
134 | A12U C38U C129G | ≤ -4.2
135 | A12U G34U G50A A52G G67C C85U C96U G141A U148G | ≤ -4.2
136 | U13C U56A C72U C93A C96U | -3.76
137 | C14G A97C A110U A120G U134A | ≤ -4.2
138 | C14A C27G A28G C43U G81A G84U U109G G143A | ≤ -4.2
139 | C14G U15G A30U A91G | ≤ -4.2
140 | C14G C96G | -2.81
141 | A12U C14G G25C C85G G94A U104C A106U C116G U139C | ≤ -4.2
142 | C14G A17C U44A G81A C85U C125A | ≤ -4.2
143 | U13C A21U A52C U55G G67U G80A C105U A150C | ≤ -4.2
144 | U13C G88U | -3.96

Row | Variant | polymerase ribozyme fitness (log ratio)
145 | C14G U33C C87A A91C | ≤ -4.2
146 | U13G A23U C35A C93U C99U U127G | ≤ -4.2
147 | C14A U55A G68A A107U | ≤ -4.2
148 | C14U C35U G59C A60G C85U U104A A120U G128U A147G | ≤ -4.2
149 | C14A G50A C87A A106U C108G A150C | ≤ -4.2
150 | A12U G81A C85A C99U | -1.62
151 | C14U A52U C85G G133C A142G | ≤ -4.2
152 | C14U A30G G48A C76G A98U U102G | ≤ -4.2
153 | C14G A19G A20C G117A G124C | -3.94
154 | C14G A52C C85A | ≤ -4.2
155 | U13C A52G G84A | -1.1
156 | U13C C27A C43A G86U | ≤ -4.2
157 | U13A G42C G48C C85A C99G A106G G133U G141C | ≤ -4.2
158 | C14A A21G U53A C85U | -3.58
159 | C14G G50A | -3.35
160 | A12U A23G C87U A150C | ≤ -4.2
161 | C14U G34A G84U G140U | ≤ -4.2
162 | C14U C93U | -2.62
163 | U13G C54U G84U | -2.19
164 | U13C U44A C87A G126U | ≤ -4.2
165 | A12U G84U G100U | ≤ -4.2
166 | U13C C14G G88A | -4
167 | A12U C85U C99G | -1.04
